{
  "source": "paper PMC6353796",
  "about": "“Thermostable Branched-Chain Amino Acid Transaminases From the Archaea Geoglobus acetivorans and Archaeoglobus fulgidus: Biochemical and Structural Characterization” (Frontiers in Bioengineering and Biotechnology, 2019)",
  "proteins": {"B1": {"name": "AF0933, branched-chain amino acid transaminase (BCAT) from Archaeoglobus fulgidus (enzyme)", "chain": "MLYVYMDGEFVPENEAKVSIFDHGFLYGDGVFEGIRAYNGRVFRLKEHIDRLYDSAKAIDLEIPITKEEFMEIILETLRKNNLRDAYIRPIVTRGIGDLGLDPRKCQNPSIIVITKPWGKLYGDLYEKGLTAITVAVRRNSFDALPPNIKSLNYLNNILAKIEANAKGGDEAIFLDRNGYVSEGSGDNIFVVKNGAITTPPTINNLRGITREAVIEIINRLGIPFKETNIGLYDLYTADEVFVTGTAAEIAPIVVIDGRKIGDGKPGEITRKLMEEFSKLTESEGVPIYE", "modifications": "PLP covalently bound (Schiff base, internal aldimine) to Lys150", "notes": "Class IV branched-chain amino acid transaminase AF0933 of Archaeoglobus fulgidus; subunit 32.4 kDa, 290 amino acids; synthetic gene optimised for E. coli; Mainly homo-hexamer in solution with a small dimeric fraction; hexamer in the crystal; also called AF0933_holo; AF0933_GABC; source: E. coli Rosetta (DE3)-pLysS (pLATE51-AF0933), purified (heat step 70°C, Ni-NTA, Superdex 200)"}},
  "molecular_target": "the molecule itself",
  "assay": "SEC; AF0933 on Superdex 200 HiLoad (1.6 x 60 cm) in 50 mM Tris-HCl, pH 7.5, 500 mM NaCl, 0.05 mM PLP; native molecular mass by size exclusion",
  "note": "“And” between values parts separate entries of the source, which are not always exact repeats. Equal entries are not always repeated.",
  "data": [
    {"protein": "B1", "values": [
      {"measurement": "stoichiometry N", "result": "6 and 2"}
    ]}
  ]
}
